Measured values: US20250339569A1 (3B PHARMACEUTICALS, published 2025)
Starred links: 1 amine or outer side, 2 acyl side, 3 side chain; linkers in the order of their positions; H or OH if unused. Positions of bridges follow the written chain, without caps; N, C: chain ends. Non-standard residues stand in square brackets, D forms with d. Primed or numbered codes have the meaning given here. *: point of attachment. Aph(SaPr)(5) = 4-amino-L-phenylalanine acylated on the ring amine with 3-sulfamoylpropanoic acid, NS(=O)(=O)CCC(=O)Nc1ccc(C[C@H](N[*:1])C(=O)[*:2])cc1; Aph(SaPr)″ = 4-amino-L-phenylalanine, ring amine acylated with 3-sulfamoylpropanoic acid, NS(=O)(=O)CCC(=O)Nc1ccc(C[C@H](N[*:1])C(=O)[*:2])cc1; Ttds(4) = 1,13-diamino-4,7,10-trioxatridecan-succinamic acid spacer, O=C(CCC(=O)[*:2])NCCCOCCOCCOCCCN[*:1]; PPAc(3) = 4-carboxymethyl piperazine linker between DOTA and Gln1, O=C(CN1CCN([*:1])CC1)[*:2]; 111In‑DOTA = O=C([O-])CN1CCN(CC(=O)[O-])CCN(CC(=O)*)CCN(CC(=O)[O-])CC1.[111In+3]; Phe(3-NHCO(CH2)3SO2NH2) = N[C@@H](Cc1cccc(NC(=O)CCCS(N)(=O)=O)c1)C(=O)O; APAc″ = 2-(4-(amino)piperidin-1-yl)acetic acid, NC1CCN(CC(=O)*)CC1; DOTA = O=C(O)CN1CCN(CC(=O)O)CCN(CC(=O)*)CCN(CC(=O)O)CC1; Biotin = O=C1N[C@H]2[C@H](CS[C@H]2CCCCC(=O)*)N1; PPAc = 4-carboxymethyl piperazine linker; mXylylene = c1cc(C[*:1])cc(C[*:2])c1; Cy5SO3 = Cy5 dye with one sulfonate; APAc = not defined here; Dap = NC[C@H](N)C(=O)O; Sni = not defined here

Legend:
[1] = biological target: Human carbonic anhydrase IX Fc-fusion protein (CAIX, Sino Biological, 10107-H02H) (human, UniProt Q16790 38-414); test: SPR (Biacore T200), CAIX-Fc captured by anti-human Fc antibody, peptide as analyte, single cycle kinetics, 25 C, 1:1 Langmuir fit
Experimental: Surface Plasmon Resonance (SPR) studies were performed on a Biacore™ T200 using a ligand capture approach. Basically, anti-human Fc antibodies were immobilized on the surface of a sensor chip and CAIX was captured on the functionalized surface via its Fc Tag.

[2] = biological target: T1, Fc-fusion protein of human carbonic anhydrase IX (human, UniProt Q16790 38-414); test: SPR, captured hCAIX-Fc; pKD category A: >8.0
[3] = biological target: T2, human carbonic anhydrase IX (CAIX) (human, UniProt Q16790 38-459); test: FACS competition, HT-29 cells, tracer printed 3BP-414 (probably 3BP-4149); pIC50 category B: 7.1-8.0
Experimental: (§1) CAIX-expressing human HT-29 colorectal cancer cells (DSMZ, RRID: CVCL_0320) were cultured in McCoys's 5A modified medium (Biochrom, #F1015) including 10% fetal calf serum (FCS), 2 mM L-glutamine, 100 U/ml penicillin and 100 μg/mL streptomycin. Cells were detached with Accutase (Biolegend, #423201) and washed in FACS buffer (PBS including 1% FCS). Cells were diluted in FACS buffer to a final concentration of 500.000 cells per ml. 200 μL of the cell suspension were transferred to a u-shaped non-binding 96-well plate (Greiner) and cells were washed in ice-cold FACS buffer.
(§2) When biotinylated compounds were used an additional incubation step with 1 μg/mL APC-Streptavidin (Miltenyi; #130-106-791) in 50 μL FACS buffer for 30 minutes on ice was performed.
(§3) Cells were washed twice with ice-cold FACS buffer and analyzed in an Attune NxT flow cytometer (Thermo Fisher). Median fluorescence intensities (MFI) of the APC/Cy5-channel were calculated by Attune NxT software.

[4] = biological target: T1, Fc-fusion protein of human carbonic …; test: SPR, captured hCAIX-Fc; t1/2 category A: >15.0 min
[5] = biological target: T3, canine carbonic anhydrase 9 (CAIX) (dog); test: radioligand binding, 111In-labeled compound, CHO cells with dog CAIX; pKD category A: >8.0
T3 construct: On transfected CHO-VGT cells; also called dog CAIX
T3 sequence (chain, as listed by the source limits assumed): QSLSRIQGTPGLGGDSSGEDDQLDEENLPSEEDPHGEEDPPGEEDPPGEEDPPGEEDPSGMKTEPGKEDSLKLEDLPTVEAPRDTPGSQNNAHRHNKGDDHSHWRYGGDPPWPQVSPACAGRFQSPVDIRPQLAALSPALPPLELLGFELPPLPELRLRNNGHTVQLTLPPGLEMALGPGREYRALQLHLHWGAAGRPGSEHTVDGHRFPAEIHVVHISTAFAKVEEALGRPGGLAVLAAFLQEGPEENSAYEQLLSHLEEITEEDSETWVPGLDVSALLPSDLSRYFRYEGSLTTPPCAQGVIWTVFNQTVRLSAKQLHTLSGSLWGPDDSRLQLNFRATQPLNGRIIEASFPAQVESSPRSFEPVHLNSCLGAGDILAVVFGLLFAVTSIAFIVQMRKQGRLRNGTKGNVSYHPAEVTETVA
Experimental: (§5) CHO-VGT cells were transfected with the human, dog, and mouse CAIX (InSCREENex GmbH) and cultured in Ham's F-12 medium (Sigma-Aldrich #N4888) supplemented with 10% fetal bovine serum (FCS), 2 mM L-glutamine, 100 U/mL Penicillin, and 0.1 mg/mL streptomycin. […] Cell concentrations were adjusted to 3×10⁵ mL⁻¹, and 1.000 μL of the suspension per well were dispensed into flat-clear-bottom 24 well plates.
(§6) Approximately 24 hours after re-seeding, the medium was aspirated and the cells were washed once with 1000 μL assay medium (Ham's medium without additives). To determine total binding, 700 μL of assay medium and 100 μL of the radioligand dilutions were added to the wells in triplicates. To determine non-specific binding, 600 μL of binding medium, 100 μL of the radioligand dilutions and 100 μL of a blocking solution containing 8 μM non-labeled compound were added to the wells in triplicates. […] An aliquot of each radioligand dilution was included in the gamma counter measurements to allow for determination of their actual concentrations via their known specific activity.

[6] = biological target: T4, murine carbonic anhydrase 9 (CAIX) (mouse, UniProt Q8VHB5 32-437); test: radioligand binding, 111In-labeled compound, CHO cells with mouse CAIX; pKD category C: 6.1-7.0
T4 construct: On transfected CHO-VGT cells; also called mouse CAIX
T4 sequence (Q8VHB5 32-437 limits assumed): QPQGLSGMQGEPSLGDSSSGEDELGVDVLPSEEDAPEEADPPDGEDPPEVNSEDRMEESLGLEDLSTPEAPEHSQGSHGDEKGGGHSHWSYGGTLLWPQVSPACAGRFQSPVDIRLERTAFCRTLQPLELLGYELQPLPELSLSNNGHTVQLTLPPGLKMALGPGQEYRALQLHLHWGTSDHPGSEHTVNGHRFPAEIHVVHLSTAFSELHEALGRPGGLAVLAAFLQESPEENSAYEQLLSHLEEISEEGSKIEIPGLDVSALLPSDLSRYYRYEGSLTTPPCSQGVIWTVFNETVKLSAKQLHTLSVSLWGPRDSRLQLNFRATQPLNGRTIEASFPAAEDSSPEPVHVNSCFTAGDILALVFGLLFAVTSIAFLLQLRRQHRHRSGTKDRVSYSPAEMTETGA

[7] = biological target: T2, human carbonic anhydrase IX (CAIX); test: radioligand binding, 111In-labeled compound, CHO cells with human CAIX; pKD category A: >8.0
Experimental: as §5, §6

[8] = biological target: T5, human carbonic anhydrase XIV (CAXIV), biotinylated (human, UniProt Q9ULX7 16-290, biotinylated); test: SPR, biotinylated CAXIV captured (Biotin CAPture)
T5 construct: Bought (SinoBiological Cat #10458-H08H); also called hCAXIV-bio
T5 sequence (Q9ULX7 16-290 limits assumed): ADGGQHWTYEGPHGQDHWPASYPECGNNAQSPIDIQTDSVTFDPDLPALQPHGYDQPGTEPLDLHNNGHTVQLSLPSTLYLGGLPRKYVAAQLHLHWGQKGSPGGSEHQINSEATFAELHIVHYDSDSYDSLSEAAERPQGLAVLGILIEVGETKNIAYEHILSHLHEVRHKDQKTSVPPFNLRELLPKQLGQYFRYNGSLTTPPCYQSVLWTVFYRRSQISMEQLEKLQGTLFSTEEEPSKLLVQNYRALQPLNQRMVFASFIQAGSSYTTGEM
Source text: (§4) For each test compound, SPR raw data in the form of resonance units (RU) were plotted as sensorgrams using the Biacore™ T200 control software. The signal from the blank sensorgram was subtracted from that of the test compound sensorgram (blank corrected). The blank corrected sensorgram was corrected for baseline drift by subtracting the sensorgram of a SCK run without the test compound (running buffer only). […] Raw data and fit results were imported as text files in IDBS. The pKD value (negative decadic logarithm of dissociation constant) was calculated in the IDBS excel template.

[9] = biological target: T1, Fc-fusion protein of human carbonic …; test: SPR, CAIX; pKD category A: >8.0
Experimental: Stock solutions of test compounds were prepared by dissolving each compound in DMSO. DMSO stock solution were diluted 1:1000 in Running Buffer without DMSO. […] SPR binding analyses were performed in Single Cycle Kinetic (SCK) mode at 25° C.
as §4

[10] = biological target: T2, human carbonic anhydrase IX (CAIX); test: FACS competition, HT-29 cells, tracer 3BP-2776; pIC50 category A: >8.0
Experimental: as §1, §2, §3

[11] = biological target: T6, human carbonic anhydrase XII (CAXII), biotinylated (human, UniProt O43570 25-301, biotinylated); test: SPR, biotinylated CAXII captured (Biotin CAPture)
T6 construct: Bought (SinoBiological Cat #10617-H08H); also called hCAXII-bio
T6 sequence (O43570 25-301 limits assumed): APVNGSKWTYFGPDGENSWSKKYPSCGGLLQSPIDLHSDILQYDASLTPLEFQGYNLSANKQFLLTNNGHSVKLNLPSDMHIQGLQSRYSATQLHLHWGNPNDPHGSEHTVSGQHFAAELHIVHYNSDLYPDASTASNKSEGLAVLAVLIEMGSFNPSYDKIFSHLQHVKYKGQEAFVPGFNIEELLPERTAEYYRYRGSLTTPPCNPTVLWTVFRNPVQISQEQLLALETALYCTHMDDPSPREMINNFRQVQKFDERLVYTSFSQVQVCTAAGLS
Source text: as §4

[12] = biological target: T7, human carbonic anhydrase IV (CAIV), biotinylated (human, UniProt P22748 19-283, limits assumed, biotinylated); test: SPR, biotinylated CAIV captured (Biotin CAPture)
T7 construct: Bought (SinoBiological, Cat # printed 10472-1H081H); also called hCAIV-bio
T7 sequence (P22748 19-283 limits assumed): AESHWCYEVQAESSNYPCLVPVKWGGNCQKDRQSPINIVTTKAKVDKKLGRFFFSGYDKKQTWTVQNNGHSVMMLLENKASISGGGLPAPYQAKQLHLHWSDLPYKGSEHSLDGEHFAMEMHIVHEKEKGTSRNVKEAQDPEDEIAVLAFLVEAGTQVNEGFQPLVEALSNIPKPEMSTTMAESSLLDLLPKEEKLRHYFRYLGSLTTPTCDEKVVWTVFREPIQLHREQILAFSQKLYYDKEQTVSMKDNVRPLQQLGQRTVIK
Source text: as §4

[13] = biological target: T8, canine carbonic anhydrase 9 (CAIX) (dog); test: radioligand saturation binding on CHO cells with dog CAIX, 8 h at 37 C
T8 construct: also called dog CAIX; dgCAIX
T8 sequence (chain, as listed by the source limits assumed): as the sequence (chain, as listed by the source limits assumed) above
Experimental: (§7) The radioligand saturation binding on CHO-huCAIX and dgCAIX was determined as follows. […] To determine total binding, 700 μL of binding medium and 100 μL of the radioligand dilutions were added to the wells in triplicates. […] The plates were incubated for 8 h at 37° C. under standard cell culture conditions (5% CO2). At the end of the incubation time the plates were placed on ice while aspirating the radioligand solutions. Aliquots of the 20 nM supernatants were transferred to HPLC vials for analysis of radioligand stability over the incubation time. Subsequently, the cells were washed with ice-cold PBS (0.5 mL, 1 mL, 1 mL). 300 μL of RIPA buffer containing PIC was added to each well and the plates were placed on a shaker for 10 min at ambient temperature. 200 μL of the cell lysate of each well was transferred to gamma-counting tubes. Their associated radioactivity was counted using a gamma counter and normalized to the measured protein concentration of each well (see chapter 6.3.7 BCA protein assay). An aliquot of each radioligand dilution was included in the gamma counter measurements to allow for determination of the actual radioligand concentrations in the dilution series.

[14] = biological target: T9, human carbonic anhydrase 9 (CAIX) (human, UniProt Q16790 38-459); test: FACS binding assay on CAIX-expressing HT-29 cells, Cy5-labeled compound; pEC50 category (A = pEC50 >8.0)
Experimental: as §1, §2, §3

[15] = biological target: T4, murine carbonic anhydrase 9 (CAIX); test: radioligand binding, 111In-labeled compound, CHO cells with mouse CAIX; pKD category B: 7.1-8.0
[16] = biological target: T9, human carbonic anhydrase 9 (CAIX); test: FACS binding assay on CAIX-expressing HT-29 cells, biotinylated compound detected with APC-streptavidin; pEC50 category (B = pEC50 between 7.1 and 8.0)
Experimental: as §1, §2, §3

[17] = biological target: T10, canine carbonic anhydrase 9 (CAIX) (dog); test: radioligand saturation binding on CHO-dgCAIX cells, 8 h at 37 °C, experiment ii
T10 construct: Expressed on transfected CHO cells (CHO-dogCA9); also called dgCAIX; dog CAIX
T10 sequence (chain, as listed by the source limits assumed): as above
Experimental: as §7

[18] = biological target: T4, murine carbonic anhydrase 9 (CAIX); test: radioligand binding, 111In-labeled compound, CHO cells with mouse CAIX; pKD category A: >8.0
Experimental: as §5, §6

B1: natGa-DPI-4452 (GaDOTA-PPAc-Gln-[Cys(3MeBn)-Glu-pro-Asp-Af3(Cpsu)-Leu-Thr-Trp-Ser-Cys]-NH2) (peptide)
peptide: {DOTA-PPAc(3)}-QCE[dP]D[Phe(3-NHCO(CH2)3SO2NH2)]LTWSC-NH2
modifications: linker 2-11 via mXylylene; also: natGa chelated by N-terminal DOTA
notes: Gallium complex of DPI-4452; also called 3BP-4529
t1/2 (dissociation half-life) [1]: 1.87 h

{DOTA-Sni}-YCE[dP]D[Phe(3-NHCO(CH2)3SO2NH2)]LTWSC-NH2 (linker 2-11 via mXylylene; reading uncertain) [3BP-4454]
pKD [2]: > 8 pkd | pIC50 [3]: 7.1 to 8 pic50 | t1/2 (half-life of the complex, SPR) [4]: > 0.25 h

{111In‑DOTA-APAc″}-VYCE[dP]DWLTWSC-NH2 (linker 3-12 via mXylylene, also called 3BP-3583 (111In-labeled)) [111In-3BP-3583]
pKD [5]: > 8 pkd | pKD [6]: 6.1 to 7 pkd | pKD [7]: > 8 pkd

{DOTA}-ECE[dP]D[Phe(3-NHCO(CH2)3SO2NH2)]LTW[Dap]C-NH2 (lactam 1-10; linker 2-11 via mXylylene, also called DPI-4503) [3BP-4503]
pKD [8]: < 6 pkd | pKD [2]: > 8 pkd | pKD [9]: > 8 pkd | pIC50 [10]: > 8 pic50 | pKD [11]: < 6 pkd | t1/2 (half-life of the complex, SPR) [4]: > 0.25 h | pKD [12]: < 6 pkd

B2: [111In]In-DPI-4452: 111In-DOTA-PPAc-Q-[C(3MeBn)-EPD-Af3(Cpsu)-LTWSC]-NH2 (peptide)
peptide: {DOTA-PPAc}-QCE[dP]D[Phe(3-NHCO(CH2)3SO2NH2)]LTWSC-NH2
modifications: linker 2-11 via mXylylene; also: 111In complexed in DOTA
notes: also called 111In-3BP-4452; In-111-labeled DPI-4452
pKd [13]: ≥ 9

{DOTA-APAc″}-VDCE[dP]DWLTW[Dap]C-NH2 (lactam 2-11; linker 3-12 via mXylylene) [3BP-4174]
pKD [8]: < 6 pkd | pKD [2]: > 8 pkd | pKD [9]: > 8 pkd | pKD [11]: < 6 pkd | t1/2 (half-life of the complex, SPR) [4]: > 0.25 h | pKD [12]: < 6 pkd

B3: DOTA-PPAc-Gln-[Cys(3MeBn)-Glu-pro-Asp-Af3(Cpsu)-Leu-Thr-Trp-Ser-Cys]-NH2 (peptide)
peptide: {DOTA-PPAc}-QCE[dP]D[Phe(3-NHCO(CH2)3SO2NH2)]LTWSC-NH2
modifications: linker 2-11 via mXylylene
notes: Synthetic cyclic peptide with uncomplexed DOTA; X stands for the non-natural residue Af3(Cpsu); also called DPI-4452; 3BP-4452
t1/2 (dissociation half-life) [1]: 1.65 h

{Cy5SO3-APAc″}-VYCE[dP]DWLTWSC-NH2 (linker 3-12 via mXylylene, Cyclic peptide with a fluorophore) [3BP-4149: Cy5SO3-APAc-Val-Tyr-[Cys(3MeBn)-Glu-pro-Asp-Trp-Leu-Thr-Trp-Ser-Cys]-NH2]
pEC50 [14]: > 8 pec50

{111In‑DOTA}-QCE[dP]D[Aph(SaPr)(5)]LTWSC-NH2 (linker 2-11 via mXylylene, also called [111In]In-DPI-4501) [111In-3BP-4501]
pKD [5]: > 8 pkd | pKD [15]: 7.1 to 8 pkd

B4: natLu-DPI-4452 (LuDOTA-PPAc-Gln-[Cys(3MeBn)-Glu-pro-Asp-Af3(Cpsu)-Leu-Thr-Trp-Ser-Cys]-NH2) (peptide)
peptide: {DOTA-PPAc(3)}-QCE[dP]D[Phe(3-NHCO(CH2)3SO2NH2)]LTWSC-NH2
modifications: linker 2-11 via mXylylene; also: natLu chelated by N-terminal DOTA
notes: Lutetium complex of DPI-4452; also called 3BP-4555
t1/2 (dissociation half-life) [1]: 2.05 h

{DOTA-APAc}-VYCE[dP]DWLTWSC-NH2 (linker 3-12 via mXylylene; reading uncertain) [3BP-3583]
pKD [8]: < 6 pkd | pKD [2]: > 8 pkd | pKD [9]: > 8 pkd | pKD [11]: < 6 pkd | t1/2 (half-life of the complex, SPR) [4]: > 0.25 h | pKD [12]: < 6 pkd

{111In‑DOTA-PPAc}-QCE[dP]D[Phe(3-NHCO(CH2)3SO2NH2)]LTWSC-NH2 (linker 2-11 via mXylylene, also called [111In]In-DPI-4452) [111In-3BP-4452]
pKD [5]: > 8 pkd | pKD [15]: 7.1 to 8 pkd

B5: [111In]In-DPI-4501: 111In-DOTA-Q-[C(3MeBn)-EPD-Aph(SaPr)-LTWSC]-NH2 (peptide)
peptide: {DOTA}-QCE[dP]D[Aph(SaPr)″]LTWSC-NH2
modifications: linker 2-11 via mXylylene; also: 111In complexed in DOTA
notes: also called 111In-3BP-4501; In-111-labeled DPI-4501
pKd [13]: ≥ 9

B6: 3BP-2775: H-Met-Gln-[Cys(3MeBn)-Glu-Ile-Trp-Val-Asp-Gly-Trp-Val-Thr-Cys]-Ttds-Lys(Bio)-NH2 (peptide)
peptide: H-MQCEIWVDGWVTC[Ttds(4)]K(Biotin)-NH2
modifications: linker 3-13 via mXylylene
SMILES: CC[C@H](C)[C@@H]1NC(=O)[C@H](CCC(=O)O)NC(=O)[C@@H](NC(=O)[C@H](CCC(N)=O)NC(=O)[C@@H](N)CCSC)CSCc2cccc(c2)CSC[C@@H](C(=O)NCCCOCCOCCOCCCNC(=O)CCC(=O)N[C@@H](CCCCNC(=O)CCCC[C@@H]2SC[C@@H]3NC(=O)N[C@@H]32)C(N)=O)NC(=O)[C@H]([C@@H](C)O)NC(=O)[C@H](C(C)C)NC(=O)[C@H](Cc2c[nH]c3ccccc23)NC(=O)CNC(=O)[C@H](CC(=O)O)NC(=O)[C@H](C(C)C)NC(=O)[C@H](Cc2c[nH]c3ccccc23)NC1=O
notes: Cyclic peptide, biotinylated
pEC50 [16]: 7.1 to 8 pec50

B7: [^111In]In-DPI-4452 (peptide)
peptide: {DOTA-PPAc}-QCE[dP]D[Phe(3-NHCO(CH2)3SO2NH2)]LTWSC-NH2
modifications: linker 2-11 via mXylylene; also: 111In complexed in DOTA
notes: Cyclic peptide with chelator DOTA complexing In-111; X stands for the non-natural residue Af3(Cpsu); also called ^111In-DOTA-PPAc-Q-[C(3MeBn)-EPD-Af3(Cpsu)-LTWSC]-NH2; ^111In-3BP-4452
pKd [17]: 9.5 -log10(M)

{111In‑DOTA}-ECE[dP]D[Phe(3-NHCO(CH2)3SO2NH2)]LTW[Dap]C-NH2 (lactam 1-10; linker 2-11 via mXylylene, also called 3BP-4503 (111In-labeled)) [111In-3BP-4503]
pKD [5]: > 8 pkd | pKD [18]: > 8 pkd | pKD [7]: > 8 pkd
